Results: the supplement of paper PMC7125110
± gives the standard error. Variants at the floor of the assay were thinned out.

B1: glmS ribozyme (parent)
chain: AUAAAAGCGCCAGAACUACAGAAAUGUAGUUGACGAGGAGGAGGUUUAUCGAAUUUUCGGCGGAUGCCUCCAAA

Variants of: B1
Assay: self-cleavage kobs at 10000 uM GlcN6P; higher = faster cleavage; RNA array
Conditions: with glucosamine-6-phosphate
Outline: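 Glucosamine-6-phosphate (40 μM to 10 mM) in HEPES/KCl/Mg(OAc)2 buffer was flowed over sequenced MiSeq chips, and tiles were imaged over ~14 h. Barcoded ribozyme variants there had been transcribed in situ by E. coli RNA polymerase and were tracked through a hybridised Cy3 probe at 37 °C. One- or two-exponential decay fits to per-tile medians, normalised to baseline and to non-cleaving reference variants, gave kobs. kcat and KM came from weighted Michaelis–Menten fits across concentrations.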

Row | Variant | self-cleavage kobs at 10000 uM GlcN6P
1 | AUAAAAGCGCCAGAACUACAGAAAUGUAGUUGACGAGGAGGAGGUUUAUCGAAUUUACGAAGGAUGCCUCCAAA [U57A G60A C61A] | < 1e-05 s⁻¹
2 | AUAAAAUCGCCCGAACUACAGAAAUGUAGUUGACGAGGAGGAGGCUUAUCGAAUUUUCGGCGGAUGCCUCCAAA [G7U A12C U45C] | < 1e-05 s⁻¹
3 | AUAAAAGCGCCAGAACUACAGAAAUGUAGGUGACUAGGAGGACGUUUAUCGAAUUUUCGGCGGAUGCCUCCAAA [U30G G35U G43C] | < 1e-05 s⁻¹
4 | AUAAAAGCGCCAGAACUACAGAAAUGUAGUUGACGAGGAGGAGGAUUAUCGAAAUUUCGGCGGAUGCCUACAAA [U45A U54A C70A] | 8.25e-05 ± 1.9e-05 s⁻¹
5 | AUAAAAGCGCCAGAACUACAGAAAUGUAGUUGACGAGGAGGAGGUUUAUCGAAUUUUUGGUGGAUGCCUCUAAA [C58U C61U C71U] | < 1e-05 s⁻¹
6 | AUAAAAGCGCCAGAACUACAGAAAUGUAGUUGACGAGCAGGAGGUUUAUAGAAUUUUCGGCGGAUGCCUCCAAA [G38C C50A] | < 1e-05 s⁻¹
7 | AUAAUAGGUCCAGAACUACAGAAAUGUAGCUGACGAGGAGGAGGUUUAUCGAAUUUUCGGCGGAUGCCUCCAAA [A5U C8G G9U U30C] | < 1e-05 s⁻¹
8 | AUAAAAGCGUCAGAACUACAGAAAUGUAGUUGACGAGGAGGAUGUUUAUCGAAUUUUCGUCGGAUGCCUCCAAA [C10U G43U G60U] | < 1e-05 s⁻¹
9 | AUAAAAGCGCCUGAACUACAGAAAUGUAGUUGACGAGGAGGAGGUGUGUCGAAUUUUCGGCGGAUGCCUCCAAA [A12U U46G A48G] | 9.42e-05 ± 2.1e-05 s⁻¹
10 | AUAAAAGCGCCAGAACUACAGAAAUGUAGUUGACGAGGUGGAGGUUUAUCGAAUCUUCGGCGGGUGCCUCCAAA [A39U U55C A64G] | 0.0229 ± 0.0073 s⁻¹
11 | AUAAAAGCGCCAGAACUACAUAAAUGUAGUUGACGAGGAGGAGGUUUAUCGGAUUUUCGGCGGAUGCCUCCAAA [G21U A52G] | 0.00145 ± 0.0003 s⁻¹
12 | AUAAAAGCGCCAGAACUACAGAAAUGUAGCUGACGUGGAGGAGUUUUAUCGAAUUUUCGGCGGAUGGCUCCAAA [U30C A36U G44U C67G] | < 1e-05 s⁻¹
13 | AUAAAAGCGCCAGAACUACAGAAAUGUAGUUGACGAGGCGGAGCUUUAUGGAAUGUUCGGCGGAUGUCUCCAAA [A39C G44C C50G U55G C67U] | < 1e-05 s⁻¹
14 | AUAAAAGGGCCAGAGCUACAGAAAUGUAGUUGACGACGAGGAGGUUUAGCGAAUUUUCGGCGGAUGCCUCCAAA [C8G A15G G37C U49G] | < 1e-05 s⁻¹
15 | AUAAAAGCGCCAGAACUACAGAAAUGUAGUCGACGAGGAGGAGGUUUAUCGAAUUUCCGGCGGAUGCCUCCAAA [U31C U57C] | 5.52e-05 ± 1.3e-05 s⁻¹
16 | AUAAAAGAGCCAGAACUACAGAAAUGUAGUUGACCAGGAGGAGGUUUAUCGAUUUUUCGGCGGAUGCCUCCAAA [C8A G35C A53U] | < 1e-05 s⁻¹
17 | AUAAAAGCGCAAGGACUACAGAAAUGUAGUUGAUGAGGAGGAGGUUUAUCGAAUUUUCGGCGGAUCCCUCCAAA [C11A A14G C34U G66C] | < 1e-05 s⁻¹
18 | AUAAAAGCGCCAGAACUACAGAAAUGUAGUUGACGAGGAGGAGGUUUAUGGAAUUUUCGGCGUAAGCCGCCAAA [C50G G63U U65A U69G] | 0.000121 ± 2.7e-05 s⁻¹
19 | AUAAAAACGCCAGAACUACAGAAAUGUAGUUGGCGAGGAGGAGGUUUAUAGAAUUUUCGGCGGAUGCCAUCAAA [G7A A33G C50A U69A C70U] | 9.88e-05 ± 1.8e-05 s⁻¹

Row | Variant | self-cleavage kobs at 10000 uM GlcN6P
20 | AUAAAAGCGCCAGAUCUACAGAAAUGUAGUUGACGAGUAGGAGGUUUAUCGAAUUUCCGGUGGAUGCCUCCAAA [A15U G38U U57C C61U] | < 1e-05 s⁻¹
21 | AUAAAAGCGCCAGAACUACAGAAAUGUAUUUGACGAGGAGGAGGUUUAUCGAAUUCUCGGCGGAUGCCUCCAAA [G29U U56C] | 0.000483 ± 0.00016 s⁻¹
22 | AUAAAAGCGCCAGAACUACAGAAAUGUAGUUGACGAGGAGGAGGUUUAACGAAUUUUCGGCGGAGGGCACCAAA [U49A U65G C67G U69A] | < 1e-05 s⁻¹
23 | AUAAAAGCGCCAGCACUACAGAAAUGUAGUUGACGAGGAGGAGGUUUAUCGAAUUUUCGGCGGAGGCUUCCAAA [A14C U65G C68U] | 0.000226 ± 4.7e-05 s⁻¹
24 | AUAAAAGCGCCAGAACUACAGAAAUGUAGAUGACGAGGAGGAGGUUUAUCGAAUUUUCGGCGGAUGGCUCGAAA [U30A C67G C71G] | < 1e-05 s⁻¹
25 | AUAAAAGCACCAGAACUACAGAAAUGUAGUUGACGAGGAGGAGGGUUAUCGAAUUUUCGGCGGAUGCUUCCAAA [G9A U45G C68U] | < 1e-05 s⁻¹
26 | AUAAAAGCGCGAUAACUACAGAAAUGUAGUUGACGAGGAGGAGGUUUAUCGAAUUUUCGGGGGAUGCCUCCAAA [C11G G13U C61G] | < 1e-05 s⁻¹
27 | AUAAAAGCGCCAGAACUACAGAAAUGUAGUUGACGAGGGGGAGGUUUAUCGACUUUUCGGCGGAUGCCUCAAAA [A39G A53C C71A] | 0.00202 ± 0.00063 s⁻¹
28 | AUAAAUGCGCCAGAACUACAGAAAUGUAGUUGACGAGGUGGAGGUUUAUCGAAAUUUCGUCGGAUGCCUCCAAA [A6U A39U U54A G60U] | < 1e-05 s⁻¹
29 | AUAAAAGCGCCAGAACUACAGAAAUGUAGUUGACGAGAAGGAGGUUUAUCGUAUUGUCGGCGGAUGCCUCCAAA [G38A A52U U56G] | < 1e-05 s⁻¹
30 | AUAAAAGCGCAAGAACUACAGAAAUGUAGUUGACGAGGAGGAGGUUUAUCGAAUUUUAAGCGGAUGCCUCCAAA [C11A C58A G59A] | 6.59e-05 ± 1.3e-05 s⁻¹
31 | AUAAAAGAGCCAAAACUACAGAAAUGUAGUUGACGAGGAGGAGGUAUAUCGAAUUUUCGGCGGAUGCCUCCAAA [C8A G13A U46A] | < 1e-05 s⁻¹
32 | AUAAAAUCGCCAGUACUACAGAAAUGUAGUUGACGAGCAGGAGGUUUAUCGAAUUUCCGUCGGAUGUCUCCAAA [G7U A14U G38C U57C G60U C67U] | < 1e-05 s⁻¹
33 | AUAAAAGCGCCAGAACUACAGAAAUGUAGUUGACGAGGAGGAGAUUUAUCGAAUUUUAGGCGGAUGUCUCCAAA [G44A C58A C67U] | 0.000308 ± 6.5e-05 s⁻¹
34 | AUAAAAGCACCAGAACUACAGAAAUGUAGUUGACGAGGCGAAGGUUUCACGAAUUUUCGGCGGAUGCCUCCAAA [G9A A39C G41A A48C U49A] | < 1e-05 s⁻¹
35 | AUAAAAGCGCCAGAACUACAGAAAUGUAGUAGACGAGGAGGAGGUGUAUCGAAUUUUCGGCGGAUGCCUCCAAA [U31A U46G] | 0.00387 ± 0.0007 s⁻¹
36 | AUAAAAGCGCCAGAACUACAGAAAUGUAGGUGACGAGGAGGAGGUUCAUCGAACUUUCGGCGGAUGUCUCCAAA [U30G U47C U54C C67U] | 5.7e-05 ± 2.2e-05 s⁻¹
37 | AUAAAAGCGCAAUAACUACAGAAAUGUAGUUGACGAGGAGGAGGUUUAUCGAGUUUUCGGCGGAUGUGUCCAAA [C11A G13U A53G C67U C68G] | 3.78e-05 ± 1.7e-05 s⁻¹
